Test results taken from patent publication US20240228986A1, “ENGINEERED CELLS, ENZYMES, AND METHODS FOR PRODUCING CANNABINOIDS” (priority 2021, published 2024).

Assays:
Type in all cases: cell-based, Yarrowia
hexanoic acid = experiment: GPS-PKC-MPT fusions, hexanoic acid feed in vivo assay (Example 13)
Procedure: Strain SB-00311 (HCS2, PKS1.1 and PKC1.1) was co-transformed with 1) a construct (pCL-SE-0274) for expression of HMGR and GPS1.1 and 2) a construct (pCL-SE-0406) for expression of a fusion protein that contains, from N- to C-terminus, GPS1.1 and MPT4 linked using the F11 linker sequence or a construct (pCL-SE-0474) for expression of a fusion protein that contains, from N- to C-terminus, GPS1.1, PKC1.1 and MPT4, each linked using the F11 linker sequence.
Transformants were assessed for CBGA production from hexanoic acid. Assay cultures consisted of YNBD+CAA media with 2.5 mM hexanoic acid. After 24 h, an additional 5 mM hexanoic acid was added to each assay culture. Cultures were quenched after 48 h total growth.
Overnight YPD (10 g/L yeast extract, 20 g/L peptone, 2% dextrose) cultures were inoculated from glycerol stocks of the appropriate strain and grown at 30° C. with 250 rpm shaking. Once cultures had reached an OD600 of 4-6, cultures were centrifuged at 500×g for 5 min, supernatants were discarded, and cell pellets were resuspended in equal volume of water. Resuspended cells were centrifuged at 500×g for 5 min, supernatants were discarded, and cells were resuspended in a volume (75 μL×OD×Vculture) of transformation cocktail (45% PEG-400, 0.1 M LiAc, 0.1 M DTT, and 25 ug/100 μL SS Salmon Sperm DNA). For each transformation, >1 μg of plasmid DNA was added to 55 μL cells/transformation cocktail and vortexed for 2 s. Transformations were incubated at 39° C. for 1 h with 250 rpm shaking. Transformations were resuspended in 750 μL YPD with 1 M sorbitol and recovered at 30° C. overnight with 250 rpm shaking. […] Precipitates were pelleted by centrifuging at 4600×g for 10 min and then 200 μL was transferred to fresh plates, sealed, and analyzed via HPLC.
All samples were quenched with equal volume of EtOH containing 0.2 mg/mL internal standard (3,5-Diisopropyl-2-hydroxybenzoic acid CAS #2215-21-6) centrifuged, and clarified solutions were analyzed by HPLC-MS […]

olivetolic acid [1] = experiment: MPT4.1 with and without GPS1.1 fusion vs MPT4 fusion, in vivo assay (Example 5); settings: 3 mM olivetolic acid
Procedure: As described below, plasmids pCL-SE-0337.MPT4.1 and pCL-SE-0753 were transformed into strain sCL-SE-0128. Multiple colonies per transformation were precultured for 24 h in YNB containing glucose (2%), casamino acids (0.5%), and MES (100 mM pH 6.5). Pre-culture was used to inoculate assay medium comprised of YNB containing glucose (6%), casamino acids (0.5%), MES (100 mM pH 6.5), and olivetolic acid (3 mM). Cultures were quenched with equal volume of ethanol after 48 h total growth and assayed for CBGA and FCBGA. Averages and standard deviations were calculated from replicates.
(§1) Overnight YPD (10 g/L yeast extract, 20 g/L peptone, 2% dextrose) cultures were inoculated from glycerol stocks of the appropriate strain and grown at 30° C. with 250 rpm shaking. Once cultures had reached an OD600 of 4-6, cultures were centrifuged at 500×g for 5 min, supernatants were discarded, and cell pellets were resuspended in equal volume of water. Resuspended cells were centrifuged at 500×g for 5 min, supernatants were discarded, and cells were resuspended in a volume (75 μL×OD×Vculture) of transformation cocktail (45% PEG-400, 0.1 M LiAc, 0.1 M DTT, and 25 ug/100 μL SS Salmon Sperm DNA). For each transformation, >1 μg of plasmid DNA was added to 55 μL cells/transformation cocktail and vortexed for 2 s. Transformations were incubated at 39° C. for 1 h with 250 rpm shaking. Transformations were resuspended in 750 μL YPD with 1 M sorbitol and recovered at 30° C. overnight with 250 rpm shaking. The next day, transformations were centrifuged at 500×g for 5 min, supernatants were discarded, and cell pellets were resuspended in 750 YPD. Resuspended transformations were plated on YPD with appropriate selection or YNBD (6.71 g/L yeast nitrogen base+nitrogen, 0.5% casamino acids, 2% dextrose) agar plates and grown at 30° C. for 2 days. Individual colonies were patched onto YPD plates with appropriate selection or YNBD plates and grown at 30° C. overnight. Patches were used to inoculate 0.5 mL YPD with appropriate selection or YNBD precultures in 96 w blocks and grown at 30° C. for 24-48 h with 1000 rpm shaking. For assays, 0.5 mL YPD with appropriate selection or YNBD cultures containing substrate were inoculated with 2 μL from precultures and grown at 30° C. for 2-4 days with 1000 rpm shaking with 2% glucose added every 24 h. Assay cultures were quenched by addition of 0.5 mL ethanol with 0.2% formic acid and 0.5 mg/mL pentyl-benzoic acid. Precipitates were pelleted by centrifuging at 4600×g for 10 min and then 200 μL was transferred to fresh plates, sealed, and analyzed via HPLC.
(§2) All samples were quenched with equal volume of EtOH containing 0.2 mg/mL internal standard (3,5-Diisopropyl-2-hydroxybenzoic acid CAS #2215-21-6) centrifuged, and clarified solutions were analyzed by HPLC-MS
(§3) • Column: 2.1×50 mm COSMOCORE PBr (Nacalai USA, Inc.) • Mobile Phase: A; 0.1% formic acid in water, B; 0.1% formic acid in acetonitrile • Flow: 0.45 mL/min • Temp: % 50 Celsius • Gradient: 20%B at 0 min, 70%B at 2.3 min, 89% B at 4.2 min, 20% B at 4.3 min, 20%B at 6 min

olivetolic acid [2] = experiment: GPS1.1 fusions of MPT21 mutants, OA feed (Example 8, Table 10); settings: 3 mM olivetolic acid, 6% glucose, 48 h quench; strain sCL-SE-0128
Procedure: as §1, §2, §3

divarinic acid [3] = experiment: GPS1.1 fusions of MPT21 mutants, DVA feed (Example 9, Table 12); settings: 2 mM divarinic acid, 2% glucose, quenched after 48 h; strain sCL-SE-0128
Procedure: as §1, §2, §3

olivetolic acid [4] = experiment: GPS-APT fusions, OA feed in vivo assay (Example 11)
Procedure, shortened: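 Yeast strain sCL-SE-0128 carrying GPS1.1–APT73.77 fusion plasmids (N- or C-terminal, various linkers) was precultured 48 h, then grown in YNB/glucose/casamino acids/MES pH 6.5 with 2 mM olivetolic acid. After 48 h total growth, cultures were quenched with equal-volume ethanol and CBGA/FCBGA measured by HPLC-MS against internal standard.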

olivetolic acid [5] = experiment: MPT fusions with GPS1.1 vs unfused MPTs, OA feed (Example 8, Table 9); settings: 2 mM olivetolic acid, 48 h quench
Procedure, shortened: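 Yeast strain sCL-SE-0128 carrying MPT or GPS1.1–MPT fusion plasmids, precultured 48 h in YNB/2% glucose/0.5% casamino acids/100 mM MES pH 6.5. Assay medium was the same plus 2 mM olivetolic acid, 30 °C. Cultures were ethanol-quenched at 48 h total growth, and CBGA and FCBGA were measured by HPLC-MS with internal standard; values are replicate means ± SD.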

divarinic acid [6] = experiment: MPT fusions with GPS1.1 vs unfused MPTs, DVA feed (Example 9, Table 11); settings: 2 mM divarinic acid
Procedure: As described below, plasmids pCL-SE-0406, pCL-SE-0664, pCL-SE-0663, pCL-SE-0662, pCL-SE-0380 (MPT4), pCL-SE-0337.MPT21, were transformed into strain sCL-SE-0128. Multiple colonies per transformation were precultured for 48 h in YNB containing glucose (2%), casamino acids (0.5%), and MES (100 mM pH 6.5). Pre-culture was used to inoculate assay medium comprised of YNB containing glucose (2%), casamino acids (0.5%), MES (100 mM pH 6.5), and divarinic acid (2 mM). Cultures were quenched after 48 h total growth and assayed for CBGVA and FCBGVA. Averages and standard deviations were calculated from replicates.
as §1, §2, §3

[7] = 6% glucose, 48 h quench, strain sCL-SE-0128
[8] = olivetolic acid feed as in Example 8, 48 h quench, strain sCL-SE-0128
[9] = 2% glucose, quenched after 48 h, strain sCL-SE-0128

Row | Molecule | CBGA (hexanoic acid; hexanoic acid 2.5 mM plus 5 mM after 24 h, 48 h quench, strain SB-00311 + pCL-SE-0274, average of 44 or 34 transformants) [µM] | production of CBGA compared to the GPS1.1-MPT4 double fusion (hexanoic acid; in words, hexanoic acid feed) | CBGA (olivetolic acid [1]; [7]) [µM] | FCBGA (olivetolic acid [1]; [7]) [µM] | CBGA/FCBGA (olivetolic acid [1]; 48 h quench, product ratio) | increase of the titer of CBGA (olivetolic acid [1]; fusion vs unfused MPT4.1, 48 h) [%] | CBGA (olivetolic acid [2]) [µM] | FCBGA (olivetolic acid [2]) [µM] | CBGVA (divarinic acid [3]) [µM] | FCBGVA (divarinic acid [3]) [µM] | CBGA (olivetolic acid [4]; [8]) [µM] | FCBGA (olivetolic acid [4]; [8]) [µM] | CBGA/FCBG (olivetolic acid [4]; olivetolic acid feed, 48 h quench, product ratio) | CBGA (olivetolic acid [5]; 2% glucose, strain sCL-SE-0128) [µM] | FCBGA (olivetolic acid [5]; 2% glucose, strain sCL-SE-0128) [µM] | CBGA/FCBGA (olivetolic acid [5]; product ratio) | CBGVA (divarinic acid [6]; [9]) [µM] | FCBGVA (divarinic acid [6]; [9]) [µM] | CBGVA/FCB (divarinic acid [6]; 48 h, product ratio)
1 | GPS1.1-F11-PKC1.1-F11-MPT4: triple fusion of GPS1.1, PKC1.1 and MPT4 via F11 linkers, SEQ ID NO: 92 (protein, GPS1.1-F11-PKC1.1-F11-MPT4, geranyl diphosphate synthase, polyketide cyclase, membrane-bound prenyltransferase fusion protein) MSKAKFESVFPRISEELVQLLRDEGLPQDAVQWFSDSLQYNCVGGKLNRGLSVVDTYQLLTGKKELDDEEYYRLALLGWLIELLQAFWLVSDDIMDESKTRRGQPCWYLKPKVGMIAIWDAFMLESGIYILLKKHFRQEKYYIDLVELFHDISFKTELGQLVDLLTAPEDEVDLNRFSLDKHSFIVRYKTAYYSFYLPVVLAMYVAGITNPKDLQQAMDVLIPLGEYFQVQDDYLDNFGDPEFIGKIGTDIQDNKCSWLVNKALQKATPEQRQILEDNYGVKDKSKELVIKKLYDDMKIEQDYLDYEEEVVGDIKKKIEQVDESRGFKKEVLNAFLAKIYKRQKGGAEAAAKEAAAKAGGSGGGSGGGGSGGSGGGGSGGGGSMAVKHLIVLKFKDEITEAQKEEFFKTFVNLVNIIPAMKDVYWGKDVTQKNKEEGYTHIVEVTFESVETIQDYIIHPAHVGFGDVYRSFWEKLLIFDYTPRKGGAEAAAKEAAAKAGGSGGGSGGGGSGGSGGGGSGGGGSMSDNSIATKILNFGHTCWKLQRPYVVKGMISIACGLFGRELFNNRHLFSWGLMWKAFFALVPILSFNFFAAIMNQIYDVDIDRINKPDLPLVSGEMSIETAWILSIIVALTGLIVTIKLKSAPLFVFIYIFGIFAGFAYSVPPIRWKQYPFTNFLITISSHVGLAFTSYSATTSALGLPFVWRPAFSFIIAFMTVMGMTIAFAKDISDIEGDAKYGVSTVATKLGARNMTFVVSGVLLLNYLVSISIGIIWPQVFKSNIMILSHAILAFCLIFQTRELALANYASAPSRQFFEFIWLLYYAEYFVYVFI | 77.4 ± 32.4 | improved production of CBGA | – | – | – | – | – | – | – | – | – | – | – | – | – | – | – | – | –
2 | GPS1.1-F11-MPT4.1: fusion of GPS1.1 and MPT4.1 via F11 linker, SEQ ID NO: 56 (protein, GPS1.1-F11-MPT4.1, geranyl diphosphate synthase, point mutant membrane-bound prenyltransferase fusion protein) MSKAKFESVFPRISEELVQLLRDEGLPQDAVQWFSDSLQYNCVGGKLNRGLSVVDTYQLLTGKKELDDEEYYRLALLGWLIELLQAFWLVSDDIMDESKTRRGQPCWYLKPKVGMIAIWDAFMLESGIYILLKKHFRQEKYYIDLVELFHDISFKTELGQLVDLLTAPEDEVDLNRFSLDKHSFIVRYKTAYYSFYLPVVLAMYVAGITNPKDLQQAMDVLIPLGEYFQVQDDYLDNFGDPEFIGKIGTDIQDNKCSWLVNKALQKATPEQRQILEDNYGVKDKSKELVIKKLYDDMKIEQDYLDYEEEVVGDIKKKIEQVDESRGFKKEVLNAFLAKIYKRQKGGAEAAAKEAAAKAGGSGGGSGGGGSGGSGGGGSGGGGSMSDNSIATKILNFGHTCWKLQRPYAVKGMISIACGLFGRELFNNRHLFSWGLMWKAFFALVPILSFNFFAAIMNQIYDVDIDRINKPDLPLVSGEMSIETAWILSIIVALTGLIVTIKLKSAPLFVFIYIFGIFAGFAYSVPPIRWKQYPFTNFLITISSHVGLAFTSYSATTSALGLPFVWRPAFSFIIAFMTVMGMTIAFAKDISDIEGDAKYGVSTVATKLGARNMTFVVSGVLLLNYLVSISIGIIWPQVFKSNIMILSHAILAFCLIFQTRELALANYASAPSRQFFEFIWLLYYAEYFVYVFI | – | – | 425 ± 11 | 34 ± 1 | 12.6 | 67 | 358 ± 0 | 27 ± 0 | 91 ± 6 | 0 ± 0 | 365 ± 22 | 26 ± 1 | 14.3 | – | – | – | – | – | –
3 | GPS1.1-F11-MPT21: fusion of GPS1.1 and MPT21 via F11 linker, SEQ ID NO: 25 (protein, GPS1.1-F11-MPT21, geranyl diphosphate synthase, recombinant membrane-bound prenyltransferase fusion protein) MSKAKFESVFPRISEELVQLLRDEGLPQDAVQWFSDSLQYNCVGGKLNRGLSVVDTYQLLTGKKELDDEEYYRLALLGWLIELLQAFWLVSDDIMDESKTRRGQPCWYLKPKVGMIAIWDAFMLESGIYILLKKHFRQEKYYIDLVELFHDISFKTELGQLVDLLTAPEDEVDLNRFSLDKHSFIVRYKTAYYSFYLPVVLAMYVAGITNPKDLQQAMDVLIPLGEYFQVQDDYLDNFGDPEFIGKIGTDIQDNKCSWLVNKALQKATPEQRQILEDNYGVKDKSKELVIKKLYDDMKIEQDYLDYEEEVVGDIKKKIEQVDESRGFKKEVLNAFLAKIYKRQKGGAEAAAKEAAAKAGGSGGGSGGGGSGGSGGGGSGGGGSMSDNSIATKILNFGHTCWKLQRPYVVKGMISIACGLFGKELLHNTNLISWGLMWKAFFALVPILSFNFFAAIMNQIYDVDIDRINKPDLPLVSGEMSIETAWILSIIVALTGLIVTIKLKSAPLFVFIYIFGIFAGFAYSVPPIRWKQNPSTNFLITISSHVGLAFTSYYASRAALGLPFELRPSFTFLLAFMTVMGMTIAFAKDISDIEGDAKYGVSTVATKLGARNMTFVVSGVLLLNYVAAILAGIIWPQAFNSNVMLLSHAILAFCLIFQTRELALANYASAPSRQFFEFIWLLYYAEYFVYVFI | – | – | – | – | – | – | 276 ± 17 | 89 ± 4 | 58 ± 7 | 6 ± 1 | – | – | – | 156 ± 13 | 52 ± 5 | 3.0 | 28 ± 2 | 4 ± 0 | 7.2
